Data reported in the Human Domainome abundance scans (Beltran et al. 2025).

B1: Far upstream element-binding protein 1, residues 184 to 257; numbered along this chain, Q96AE4 (parent)
chain: GNAVQEIMIPASKAGLVIGKGGETIKQLQERAGVKMVMIQDGPQNTGADKPLRITGDPYKVQQAKEMVLELIRD
B2: Tudor domain-containing protein 3, residues 554 to 611; numbered along this chain, Q9H7E2 (parent)
chain: KMWKPGDECFALYWEDNKFYRAEVEALHSSGMTAVVKFIDYGNYEEVLLSNIKPIQTE

Variants of: B1
Experiment: abundance fitness (aPCA) (normalised: wild type 0, dead -1); higher = more abundant; growth selection in yeast, the domain comes from the species named
Conditions: Homo sapiens

Abundance fitness: each site, then its substitutions
L71: G -0.282 | A -0.1 | R -0.087 | W -0.189 | I 0.025 | V -0.01 | M -0.031 | Q -0.082 | P -0.481 | Y -0.225 | D -0.389 | C -0.048 | F -0.078 | H -0.102 | S -0.218 | K -0.001 | E -0.089 | N -0.242 | T -0.066
D74: E -0.058 | C -0.128 | S -0.111 | L -0.277 | Y -0.197 | N -0.114 | H -0.167 | F -0.311 | P -0.016 | M -0.193 | K -0.175 | G 0.008 | W -0.327 | Q -0.059 | T -0.076 | R -0.089 | A -0.089
E70: L -0.209 | Q -0.072 | H -0.081 | R -0.063 | V -0.339 | M -0.152 | S -0.106 | W -0.239 | K 0.002 | A -0.04 | I -0.432 | P -0.308 | D 0.046 | F -0.314 | N -0.127 | T -0.056 | G -0.044 | C -0.105 | Y -0.196
I72: P -0.394 | K -0.405 | Q -0.24 | R -0.498 | Y -0.276 | E -0.295 | D -0.408 | H -0.524 | F -0.136 | A -0.173 | M -0.009 | G -0.329 | T -0.072 | S -0.301 | W -0.353 | N -0.398 | V 0.011 | L 0.01 | C 0.045
V68: W -0.963 | M -0.156 | P -0.428 | Q -0.441 | I -0.023 | F -0.658 | K -0.41 | N -0.385 | H -0.495 | R -0.562 | S -0.425 | T -0.143 | L -0.154 | A -0.221 | G -0.48 | D -0.359 | E -0.427 | Y -0.753
K65: A -0.064 | R -0.012 | F -0.241 | V -0.037 | L -0.211 | S -0.102 | N -0.129 | T -0.057 | I -0.049 | D -0.577 | P -0.709 | Y -0.11 | W -0.439 | G -0.086 | M -0.07 | H -0.056 | C -0.097
M67: G -0.177 | F -0.117 | D -0.075 | Y -0.088 | C -0.187 | T -0.116 | R -0.096 | W -0.124 | K -0.111 | V -0.126 | I -0.128 | L -0.053 | H -0.078 | Q -0.067 | P -0.455 | A -0.03 | S -0.078 | E -0.082 | N -0.073
L69: M 0.068 | V -0.082 | K -0.028 | Y 0.008 | T -0.021 | I -0.102 | G -0.018 | D 0.016 | P -0.346 | F -0.077 | A -0.01 | N 0.019 | E 0.011 | S -0.015 | R 0.011 | Q 0.003 | H -0.073
A64: Y -0.98 | N -0.772 | V -0.262 | T -0.296 | R -0.853 | W -1.2 | S -0.228 | Q -0.695 | M -0.469 | P -0.784
R73: T 0.043 | L -0.1 | D 0.092 | I -0.15 | N -0.004 | E 0.088 | F -0.197 | C -0.002 | S 0.044 | Q 0.048 | A 0.111 | W -0.033 | K 0.015 | H 0.031 | V -0.038 | P -0.208 | M 0.001
E66: C -0.106 | F -0.18 | K -0.007 | I -0.224 | R -0.081 | W -0.167 | P -0.476 | L -0.092 | T -0.03 | Q -0.07 | D -0.002 | N -0.048 | G -0.046 | H -0.165 | V -0.072 | M -0.08 | A -0.091

Variants of: B2
Experiment: as above
Conditions: Homo sapiens

Abundance fitness of substitutions, site by site:
M2: W -0.657 | G -0.052 | P -0.36 | N -0.169 | F -0.194 | I -0.201 | E -0.19 | S -0.009 | L -0.098 | K -0.36 | H -0.13 | C -0.286 | R -0.254 | A -0.192 | T -0.23 | Y -0.15 | V -0.164 | Q -0.134
K4: V -0.244 | I -0.415 | P -0.912 | C -0.169 | W -0.543 | T -0.059 | D -0.678 | G -0.486 | F -0.221 | A -0.092 | N -0.233 | L -0.287 | M -0.169 | Q -0.158 | S -0.149 | R -0.232 | E -0.2 | H -0.335 | Y -0.17
G6: M -0.922 | Q -0.832 | L -0.836 | E -0.845 | N -0.798 | F -0.828 | Y -0.971 | D -0.874 | K -0.416 | S -0.776 | I -0.941 | R -0.431 | A -0.785 | H -0.502 | T -0.919 | W -0.545 | P -0.985 | C -0.86 | V -0.928
E8: F -0.118 | C -0.066 | Q -0.055 | V -0.122 | P -0.032 | T -0.083 | Y -0.079 | K 0.017 | L -0.016 | I 0.056 | M -0.046 | W -0.178 | N -0.077 | H 0.007 | G -0.264
K1: T -0.278 | A -0.218 | G -0.138 | S -0.283 | E -0.143 | W -0.336 | L -0.187 | C -0.261 | V -0.225 | Y -0.158 | N 0.085 | D -0.182 | R -0.326 | I 0.134 | Q -0.657 | H -0.003
C9: A -0.765 | D -1.03 | G -0.869 | E -0.887 | F -0.915
P5: F -0.529 | Q -0.061 | V -0.034 | H -0.133 | S -0.113 | A -0.017 | I -0.141 | W -0.926 | C -0.201 | T -0.024 | E -0.187 | Y -0.447 | L -0.261 | D -0.763 | M -0.401 | N 0.03 | G -0.61 | R -0.123
D7: R -0.762 | I -0.826 | Y -0.712 | V -0.789 | P -0.706 | F -0.677 | H -0.764 | K -0.887 | N -0.631 | G -0.899 | W -0.882 | A -0.396 | C -0.573 | S -0.608 | L -0.731 | Q -0.321 | T -0.502
W3: Q -0.721 | V -0.053 | I -0.059 | E -0.866 | K -1.01 | H -0.842 | C -0.509 | A -0.634 | G -0.856 | P -0.314 | S -0.885 | Y -0.312 | T -0.615 | R -1.01 | M -0.079 | D -1.31 | N -0.737 | F 0.031
